Experiments:
[1] = target: T1, Human MuSK (R&D Systems, cat. 10189-MK, histidine tag) (human, UniProt O15146 24-495); test: SPR (Biacore), koff at pH 5.5 over koff at pH 7.4
T1 construct: Bought protein; also called human monomeric MuSK-6xhis; not shown: histidine tag (6xhis)
T1 sequence: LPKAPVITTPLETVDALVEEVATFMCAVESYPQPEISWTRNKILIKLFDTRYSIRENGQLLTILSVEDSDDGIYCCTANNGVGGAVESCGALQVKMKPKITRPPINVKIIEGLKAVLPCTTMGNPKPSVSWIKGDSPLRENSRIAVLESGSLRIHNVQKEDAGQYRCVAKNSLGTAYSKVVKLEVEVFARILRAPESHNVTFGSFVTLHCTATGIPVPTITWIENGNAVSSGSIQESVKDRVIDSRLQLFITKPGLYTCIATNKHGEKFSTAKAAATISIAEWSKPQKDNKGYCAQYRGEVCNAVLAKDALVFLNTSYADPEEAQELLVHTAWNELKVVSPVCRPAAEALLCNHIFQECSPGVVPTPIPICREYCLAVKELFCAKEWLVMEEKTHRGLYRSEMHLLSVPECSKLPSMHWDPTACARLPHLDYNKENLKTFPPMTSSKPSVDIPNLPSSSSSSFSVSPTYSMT
Source text: (§1) In order to study pH dependent binding of our antibodies to MuSK, the Biacore was used with the same setup as described in the paragraph entitled “Binding affinity for mouse, human and rhesus monkey recombinant MuSK in Biacore”. 6. […] For the other antibodies there is no real difference observed between pH 7.4 and 5.5.

[2] = target: T1, Human MuSK (R&D Systems, cat. 10189-MK, …); test: SPR (Biacore), MuSK-coated chip presaturated with 500 nM 3F6c (competitor)
Experimental: A chip was coated with ˜5000 RU of human MuSK (Lot nr DHUCO 11908A, batch nr 1089_MK). In a first experiment the saturating concentration of the pre-leads was determined. This is the concentration where the amplitude of a specific pre-lead doesn't increase anymore when additional pre-lead is injected on the immobilized MuSK.

hMuSK delta 1-2 (Ig3 Fz) = target: T2, hMuSK delta 1-2 (Ig3 Fz) (human, UniProt O15146); test: ELISA, hMuSK delta 1-2 (Ig3 Fz) captured on anti-FLAG coat, antibody titrated, anti-human Fc HRP detection, OD450
T2 construct: truncated extracellular domain, captured by anti-FLAG
T2 sequence (truncated extracellular domain, looked up): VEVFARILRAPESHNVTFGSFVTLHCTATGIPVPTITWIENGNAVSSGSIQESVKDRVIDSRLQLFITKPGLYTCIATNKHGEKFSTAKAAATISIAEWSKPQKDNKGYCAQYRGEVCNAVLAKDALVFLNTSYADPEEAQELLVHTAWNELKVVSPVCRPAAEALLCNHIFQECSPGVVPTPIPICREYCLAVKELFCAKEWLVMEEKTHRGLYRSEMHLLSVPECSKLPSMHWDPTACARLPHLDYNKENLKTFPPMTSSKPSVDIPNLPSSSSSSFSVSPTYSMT
Experimental: For binding to MuSK domains—An ELISA plate was coated with 0.5 μg/ml of anti-FLAG (M2 clone, Sigma Cat. F3165) and incubated overnight at 4° C. Next, the plate was washed with PBS and blocked with 1×PBS 1% casein for two hours at RT. After washing the plate, human monomeric MuSK FLAG streptavidin (batch 27-6-2019) and truncated MuSK variants (batch 3-9-2019) at 1 μg/ml in PBS where incubated for one hour at RT. After washing the plate, antibodies were diluted in blocking buffer and added to the plate. After a one hour incubation at RT, the plate was washed. Next, detecting antibody was added and incubated for one hour at RT (anti-human Fc HRP (1/5000) (clone 5A9, cat. No. Ab7499, ABCAM)) in blocking buffer. Lastly, the plate was washed with PBS and TMB was added and the reaction was stopped with 0.5 M H2SO4. OD 450 nm was determined by the Tecan Sunrise ELISA plate reader.
For the MuSK domain binding ELISA, binding of anti-MuSK antibodies to FLAG captured human monomeric MuSK and truncated variants was tested (FIG. 6). 3D9b, 3F6c, 3D10a, 4D3 and 3B5 bound only to full length MuSK, no binding was observed against the truncated MuSK variants. Therefore, we conclude that our antibodies bind to the Ig1 domain.

[3] = target: T1, Human MuSK (R&D Systems, cat. 10189-MK, …); test: SPR (Biacore), antibody captured on anti-hFc chip; 1.25 nM; dissociation pH 7.4
Source text: as §1

[4] = target: T3, Mouse MuSK as it stands on mouse muscle (neuromuscular junctions, C2C12 myotubes) (mouse, UniProt Q61006 22-868); test: cell-based or functional assay
T3 sequence (looked up): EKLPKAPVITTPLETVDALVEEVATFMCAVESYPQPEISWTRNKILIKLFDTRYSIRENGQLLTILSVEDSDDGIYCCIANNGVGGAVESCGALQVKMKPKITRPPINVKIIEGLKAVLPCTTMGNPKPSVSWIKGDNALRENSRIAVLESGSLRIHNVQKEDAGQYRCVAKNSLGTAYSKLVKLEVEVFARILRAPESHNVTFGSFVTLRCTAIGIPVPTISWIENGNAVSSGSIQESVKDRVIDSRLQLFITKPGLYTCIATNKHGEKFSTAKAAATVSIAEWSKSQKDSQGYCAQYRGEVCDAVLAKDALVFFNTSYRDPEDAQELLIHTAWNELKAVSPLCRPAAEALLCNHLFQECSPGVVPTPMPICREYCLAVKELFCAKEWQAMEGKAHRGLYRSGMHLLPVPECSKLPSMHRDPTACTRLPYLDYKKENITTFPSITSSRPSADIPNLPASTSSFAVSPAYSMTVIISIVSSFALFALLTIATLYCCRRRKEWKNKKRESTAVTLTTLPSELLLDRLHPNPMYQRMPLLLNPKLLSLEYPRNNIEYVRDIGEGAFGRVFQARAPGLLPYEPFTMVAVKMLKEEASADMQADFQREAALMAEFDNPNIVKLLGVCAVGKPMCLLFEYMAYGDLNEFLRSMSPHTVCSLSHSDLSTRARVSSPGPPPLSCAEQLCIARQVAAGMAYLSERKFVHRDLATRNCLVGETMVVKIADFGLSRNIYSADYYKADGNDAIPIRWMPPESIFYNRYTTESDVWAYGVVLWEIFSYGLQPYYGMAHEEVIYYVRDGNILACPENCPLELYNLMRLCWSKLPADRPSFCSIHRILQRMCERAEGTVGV

Binder	Fold difference (5.5/7.4) of koff [1] [fold]	amplitude of prelead after presaturating MuSK (RU) [2] [RU]	extra amplitude (%) [2] [%]	normalized extra amplitude (%) [2] [%]	koff [3] [s⁻¹]	AChR clusters larger or equal to 15 µm (large clusters) compared to agrin; antibody 0.11 µg/ml [4]	AChR clusters larger or equal to 15 µm (large clusters) compared to agrin; antibody 1.1 µg/ml [4]	AChR clusters larger or equal to 15 µm (large clusters) compared to agrin; antibody 11 µg/ml [4]	AChR clusters larger or equal to 15 µm (large clusters) compared to agrin; antibody 110 µg/ml [4]	binding result (hMuSK delta 1-2 (Ig3 Fz))
3D10a (antibody, human IgG1, kappa, L234A L235A, V domains shown) VH: EVQLVESGGGLVKPGGSLRLSCAASGFTFSASTMAWVRQAPGKGLEWVSSVSGDSHHIYYADSLKGRFTISRDNAKNSLYLQMNSLRAEDTAVYYCARERLLRLGVGFDSWGQGTLVTVSS VL: DIQMTQSPSSLSASVGDRVTITCRASQRISGFVNWYQQKPGKAPKLLIYAASTLQSGVPSRFSGSGSGTDFTLTISSLQPEDFATYYCQQSYSPLYTFGQGTKLEIKR	0.6	75	3.2	1.4	0.00016	62 % of agrin	64 % of agrin	61 % of agrin	58 % of agrin	no binding (tested: log(conc) 4.2 (about 16000 ng/ml))
3D9b (antibody, human IgG1, kappa, L234A L235A, V domains shown) VH: EVQLVESGGGLVKPGGSLRLSCAASGFTFSTYTMHWVRQAPGKGLEWVSSISSRSAYKYYADSVKGRFTISRDNAKNSLYLQMNSLRAEDTAVYYCARDFFQLGPPRFDSWGQGTLVTVSS VL: DIQMTQSPSSLSASVGDRVTITCRASQRISSFLNWYQQKPGKAPKLLIYGASNLQSGVPSRFSGSGSGTDFTLTISSLQPEDFATYYCQQSYSPSYTFGQGTKLEIKR	0.3	191	11.5	9.7	0.00014	49 % of agrin	84 % of agrin	79 % of agrin	66 % of agrin	no binding (tested: log(conc) 4.2 (about 16000 ng/ml))

More lines, main results first:

Fold difference (5.5/7.4) of koff [1] [fold]	amplitude of prelead after presaturating MuSK (RU) [2] [RU]	extra amplitude (%) [2] [%]	normalized extra amplitude (%) [2] [%]	koff [3] [s⁻¹]	AChR clusters larger or equal to 15 µm (large clusters) compared to agrin; antibody 0.11 µg/ml [4]	AChR clusters larger or equal to 15 µm (large clusters) compared to agrin; antibody 1.1 µg/ml [4]	AChR clusters larger or equal to 15 µm (large clusters) compared to agrin; antibody 11 µg/ml [4]	AChR clusters larger or equal to 15 µm (large clusters) compared to agrin; antibody 110 µg/ml [4]	Binder	binding result (hMuSK delta 1-2 (Ig3 Fz))
1.1	68	2.8	1.1	0.00015	44 % of agrin	58 % of agrin	61 % of agrin	58 % of agrin	4D3 (antibody, human IgG1, kappa, L234A L235A, V domains shown) VH: EVQLVESGGGLVKPGGSLRLSCAASGFTFSSYTMTWVRQAPGKGLEWVSSISSGGHYIYYTDSLKGRFTISRDNAKNSLYLQMNSLRAEDTAVYYCARERLLRLGVGFDFWGQGTLVTVSS VL: DIQMTQSPSSLSASVGDRVTITCRASQSISGYLNWYQQKPGKAPKLLIYAASTLQSGVPSRFSGSGSGTDFTLTISSLQPEDFATYYCQQSYSALYTFGQGTKLEIKR	no binding (tested: log(conc) 4.2 (about 16000 ng/ml))
2.5	64	1.8	0	7e-05	60 % of agrin	46 % of agrin	51 % of agrin	50 % of agrin	3F6c (antibody, human IgG1, kappa, L234A L235A, V domains shown) VH: EVQLVESGGGLVKPGGSLRLSCAASGFTFSSYTMDWVRQAPGKGLEWVSSIGSNGDYIYYADSVRGRFTISRDNAKNSLYLQMNSLRAEDTAVYYCARGQLAVAGTHFDYWGQGTLVTVSS VL: DIQMTQSPSSLSASVGDRVTITCRASQKVNKYVNWYQQKPGKAPKLLIYAASTLQSGVPSRFSGSGSGTDFTLTISSLQPEDFATYYCQQSYSPLSTFGQGTKLEIKR	no binding (tested: log(conc) 4.2 (about 16000 ng/ml))

From US20230110188A1 (ARGENX IIP, published 2023)
